The data set relates to Escherichia coli TOP10. As to the kind of experiment: shrunken log2 fold change of peptide-encoding DNA abundance (4.5 h post-induction vs induction); higher = less antimicrobial activity (less host growth inhibition). Conditions: time post-induction: 4.5 h; library: site-saturation at positions 5, 18, 19, 20.
Turning to RRIRLRPPRLPRPRPRPNNDPRP, the “shrunken log2 fold change” value was -0.763. RRIRMRPPRLPRPRPRPAKRPRP: the “shrunken log2 fold change” value was determined as 1.21. In the case of RRIRARPPRLPRPRPRPYWTPRP, the “shrunken log2 fold change” value is -0.16.

On to RRIRNRPPRLPRPRPRPIHKPRP, for which the “shrunken log2 fold change” value was -0.377.

With RRIRWRPPRLPRPRPRPWKYPRP, the “shrunken log2 fold change” value is -0.679. For the sequence RRIRHRPPRLPRPRPRPNTWPRP, the “shrunken log2 fold change” value was -0.0528. In the case of RRIRTRPPRLPRPRPRPEASPRP, the “shrunken log2 fold change” value was 0.00709. As for RRIRARPPRLPRPRPRPYCIPRP, the “shrunken log2 fold change” value was -0.151. As for RRIRKRPPRLPRPRPRPRSDPRP, the “shrunken log2 fold change” value is 0.197. For the sequence RRIRRRPPRLPRPRPRPCSRPRP, the “shrunken log2 fold change” value amounted to 0.00396. In the case of RRIRHRPPRLPRPRPRPGVDPRP, the “shrunken log2 fold change” value was -0.213. For RRIRVRPPRLPRPRPRPGFWPRP, the “shrunken log2 fold change” value is 0.587. With RRIRGRPPRLPRPRPRPEQKPRP, the “shrunken log2 fold change” value was determined as 0.105. Consider RRIRSRPPRLPRPRPRPYMAPRP, for which the “shrunken log2 fold change” value is -0.539. On to RRIRKRPPRLPRPRPRPFLMPRP, for which the “shrunken log2 fold change” value was determined as 0.043. The result for RRIRTRPPRLPRPRPRPEDPPRP reads -0.00217; that for RRIRDRPPRLPRPRPRPQRKPRP, 0.0137.

In the case of RRIRHRPPRLPRPRPRPWPWPRP, the “shrunken log2 fold change” value worked out at 0.199.

With RRIRWRPPRLPRPRPRPQCNPRP, the “shrunken log2 fold change” value is -0.0929.

In the case of RRIRERPPRLPRPRPRPGQEPRP, the “shrunken log2 fold change” value worked out at 0.0214. In the case of RRIRVRPPRLPRPRPRPRFQPRP, the “shrunken log2 fold change” value was found to be 0.129. The result for RRIRRRPPRLPRPRPRPQAHPRP reads 0.544; that for RRIRFRPPRLPRPRPRPVEQPRP, -0.0448. The result for RRIRHRPPRLPRPRPRPGRDPRP reads 0.135.

For RRIRLRPPRLPRPRPRPYNIPRP, the “shrunken log2 fold change” value is -1.31. RRIRFRPPRLPRPRPRPLQMPRP: the “shrunken log2 fold change” value stood at 0.236. Regarding RRIRARPPRLPRPRPRPWQAPRP, the “shrunken log2 fold change” value was -0.0548.

With RRIRSRPPRLPRPRPRPPHCPRP, the “shrunken log2 fold change” value worked out at 0.105.

As for RRIRSRPPRLPRPRPRPWKNPRP, the “shrunken log2 fold change” value was -0.0508. For RRIRFRPPRLPRPRPRPETDPRP, the “shrunken log2 fold change” value turned out to be 0.114. With RRIRFRPPRLPRPRPRPNARPRP, the “shrunken log2 fold change” value stood at 0.241. For RRIRDRPPRLPRPRPRPNWCPRP the value was 0.0171; for RRIRWRPPRLPRPRPRPDIFPRP, -0.029.

For RRIRLRPPRLPRPRPRPFQMPRP, the “shrunken log2 fold change” value is -0.193. Regarding RRIRVRPPRLPRPRPRPNHKPRP, the “shrunken log2 fold change” value was -0.292. Turning to RRIRCRPPRLPRPRPRPGGPPRP, the “shrunken log2 fold change” value turned out to be 0.108. Regarding RRIRKRPPRLPRPRPRPSDLPRP, the “shrunken log2 fold change” value came out at 0.154. The result for RRIRCRPPRLPRPRPRPSGHPRP reads -0.422. For RRIRYRPPRLPRPRPRPKCMPRP, the “shrunken log2 fold change” value is -0.841. Consider RRIRNRPPRLPRPRPRPCNVPRP, for which the “shrunken log2 fold change” value is -0.00963. Turning to RRIRKRPPRLPRPRPRPSPSPRP, the “shrunken log2 fold change” value was 0.452. For the sequence RRIRLRPPRLPRPRPRPHQGPRP, the “shrunken log2 fold change” value was -0.0634.

Turning to RRIRQRPPRLPRPRPRPCTCPRP, the “shrunken log2 fold change” value is -0.0638. RRIRARPPRLPRPRPRPKFPPRP: the “shrunken log2 fold change” value was 2.15. Consider RRIRTRPPRLPRPRPRPWSKPRP, for which the “shrunken log2 fold change” value was -0.0826. The result for RRIRPRPPRLPRPRPRPQHNPRP reads -0.536; that for RRIRGRPPRLPRPRPRPHHTPRP, -0.12; that for RRIRVRPPRLPRPRPRPGCEPRP, 2.45.

In the case of RRIRWRPPRLPRPRPRPLHTPRP, the “shrunken log2 fold change” value amounted to 0.0467. RRIRERPPRLPRPRPRPRHWPRP: the “shrunken log2 fold change” value worked out at 0.0819.

As for RRIRVRPPRLPRPRPRPQYYPRP, the “shrunken log2 fold change” value was -0.238.

As for RRIRFRPPRLPRPRPRPYCHPRP, the “shrunken log2 fold change” value was -0.687. For RRIRFRPPRLPRPRPRPTTPPRP the value was 0.352; for RRIRMRPPRLPRPRPRPFDFPRP, 0.0495.

With RRIRYRPPRLPRPRPRPCIKPRP, the “shrunken log2 fold change” value worked out at 1.75. Regarding RRIRNRPPRLPRPRPRPYEYPRP, the “shrunken log2 fold change” value is -0.675. Consider RRIRNRPPRLPRPRPRPWMTPRP, for which the “shrunken log2 fold change” value was -0.189. As for RRIRVRPPRLPRPRPRPLECPRP, the “shrunken log2 fold change” value was -0.041. With RRIRRRPPRLPRPRPRPKIVPRP, the “shrunken log2 fold change” value came to 0.0944. For RRIRTRPPRLPRPRPRPVRAPRP the value was 0.514.

In the case of RRIRCRPPRLPRPRPRPEHHPRP, the “shrunken log2 fold change” value is -0.114. For RRIRLRPPRLPRPRPRPSPAPRP the value was 0.254; for RRIRRRPPRLPRPRPRPWIWPRP, -0.282. Take RRIRDRPPRLPRPRPRPTIGPRP: the “shrunken log2 fold change” value is -0.0292. As to RRIRRRPPRLPRPRPRPPPMPRP, the “shrunken log2 fold change” value was determined as 0.959. In the case of RRIRWRPPRLPRPRPRPWPRPRP, the “shrunken log2 fold change” value was determined as 0.223.

Take RRIRGRPPRLPRPRPRPRPMPRP: the “shrunken log2 fold change” value stood at 1.51.

In the case of RRIRPRPPRLPRPRPRPGIIPRP, the “shrunken log2 fold change” value is -0.0894. Consider RRIRMRPPRLPRPRPRPLWFPRP, for which the “shrunken log2 fold change” value is -0.147. As to RRIRWRPPRLPRPRPRPMITPRP, the “shrunken log2 fold change” value amounted to 0.0975. On to RRIRFRPPRLPRPRPRPGPCPRP, for which the “shrunken log2 fold change” value turned out to be 0.0242.

RRIRSRPPRLPRPRPRPSTVPRP: the “shrunken log2 fold change” value is -0.353. Turning to RRIRIRPPRLPRPRPRPTATPRP, the “shrunken log2 fold change” value came to 0.0371. In the case of RRIRTRPPRLPRPRPRPTCAPRP, the “shrunken log2 fold change” value came out at 0.175. Regarding RRIRHRPPRLPRPRPRPFHRPRP, the “shrunken log2 fold change” value stood at 0.00911. As for RRIRLRPPRLPRPRPRPFNDPRP, the “shrunken log2 fold change” value was determined as 0.0825. The result for RRIRKRPPRLPRPRPRPAIIPRP reads -0.0297; that for RRIRVRPPRLPRPRPRPYRFPRP, -0.0944; that for RRIRCRPPRLPRPRPRPDKGPRP, 0.0974. As for RRIRTRPPRLPRPRPRPIVAPRP, the “shrunken log2 fold change” value was 2.95. Regarding RRIRMRPPRLPRPRPRPSMSPRP, the “shrunken log2 fold change” value was -0.024. For RRIRKRPPRLPRPRPRPGYYPRP, the “shrunken log2 fold change” value was -0.0439. For RRIRNRPPRLPRPRPRPYNKPRP the value was -0.963; for RRIRMRPPRLPRPRPRPQIIPRP, 0.022; for RRIRDRPPRLPRPRPRPQQVPRP, 0.0253. For RRIRFRPPRLPRPRPRPGMVPRP the value was -0.0783; for RRIRERPPRLPRPRPRPLLKPRP, -0.439.

For RRIRHRPPRLPRPRPRPYYTPRP, the “shrunken log2 fold change” value is -0.0493. On to RRIRTRPPRLPRPRPRPDMYPRP, for which the “shrunken log2 fold change” value is -0.235.

On to RRIRMRPPRLPRPRPRPKVNPRP, for which the “shrunken log2 fold change” value amounted to 0.31. Consider RRIRSRPPRLPRPRPRPKYTPRP, for which the “shrunken log2 fold change” value is -0.518. As for RRIRQRPPRLPRPRPRPPAPPRP, the “shrunken log2 fold change” value came out at 0.399.

Regarding RRIRNRPPRLPRPRPRPGIQPRP, the “shrunken log2 fold change” value came out at 0.00115.

For the sequence RRIRHRPPRLPRPRPRPPNYPRP, the “shrunken log2 fold change” value was -0.0558.

For the sequence RRIRRRPPRLPRPRPRPINAPRP, the “shrunken log2 fold change” value came out at 0.185. As for RRIRWRPPRLPRPRPRPEWAPRP, the “shrunken log2 fold change” value turned out to be 0.497.

For RRIRIRPPRLPRPRPRPTGDPRP, the “shrunken log2 fold change” value was determined as 0.109. With RRIRPRPPRLPRPRPRPLSPPRP, the “shrunken log2 fold change” value was -0.113. On to RRIRMRPPRLPRPRPRPQFIPRP, for which the “shrunken log2 fold change” value was -0.0965. RRIRARPPRLPRPRPRPTYQPRP: the “shrunken log2 fold change” value was -0.163. Turning to RRIRPRPPRLPRPRPRPYIRPRP, the “shrunken log2 fold change” value was -0.297. On to RRIRMRPPRLPRPRPRPPKQPRP, for which the “shrunken log2 fold change” value is 0.742. The result for RRIRKRPPRLPRPRPRPELCPRP reads -0.021. As for RRIRERPPRLPRPRPRPVACPRP, the “shrunken log2 fold change” value was -0.0696.

For the sequence RRIRSRPPRLPRPRPRPGLNPRP, the “shrunken log2 fold change” value is -0.207. For RRIRRRPPRLPRPRPRPHLQPRP, the “shrunken log2 fold change” value is -0.0319. The result for RRIRYRPPRLPRPRPRPVDRPRP reads -0.126; that for RRIRERPPRLPRPRPRPRCDPRP, -0.044; that for RRIRARPPRLPRPRPRPGRVPRP, 0.612. RRIRPRPPRLPRPRPRPIDPPRP: the “shrunken log2 fold change” value was -0.172.

On to RRIRVRPPRLPRPRPRPPPQPRP, for which the “shrunken log2 fold change” value stood at 0.856.

With RRIRPRPPRLPRPRPRPWQFPRP, the “shrunken log2 fold change” value was found to be 0.00677. Regarding RRIRLRPPRLPRPRPRPNREPRP, the “shrunken log2 fold change” value was -0.118.

On to RRIRNRPPRLPRPRPRPKTRPRP, for which the “shrunken log2 fold change” value was determined as 0.138. For RRIRSRPPRLPRPRPRPTVLPRP the value was 0.0356. For RRIRARPPRLPRPRPRPVFDPRP, the “shrunken log2 fold change” value was 0.321. In the case of RRIRCRPPRLPRPRPRPVQLPRP, the “shrunken log2 fold change” value is 0.0365. On to RRIRIRPPRLPRPRPRPITGPRP, for which the “shrunken log2 fold change” value is -0.0492. With RRIRIRPPRLPRPRPRPCVTPRP, the “shrunken log2 fold change” value was -0.22. For RRIRFRPPRLPRPRPRPGNMPRP the value was -0.198; for RRIRFRPPRLPRPRPRPMGMPRP, -0.0492.

Turning to RRIRSRPPRLPRPRPRPELKPRP, the “shrunken log2 fold change” value was -0.0512. Take RRIRQRPPRLPRPRPRPSVAPRP: the “shrunken log2 fold change” value was -0.0735. On to RRIRIRPPRLPRPRPRPIDGPRP, for which the “shrunken log2 fold change” value is -0.248.

Take RRIRHRPPRLPRPRPRPIAPPRP: the “shrunken log2 fold change” value stood at 0.0449.

The values above are taken from the supplement of paper PMC9112550, “Optimization of the antimicrobial peptide Bac7 by deep mutational scanning” (BMC Biology, 2022).
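Also: peptides expressed intracellularly from a pBAD plasmid library in pooled LB shake-flask culture, induced with 0.3% L-arabinose, DNA abundance read by NGS, three biological replicates, DESeq2 with apeglm shrinkage.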
